Assay results published in patent US5591427A, “Human Interleukin-3(Il-3) variants and their use to promote or antagonize IL-3-mediated processes” (Medvet Science Pty. Ltd., priority 1979, dated 1997).

Columns and labels:
monocytes = assay: Stimulation of human monocyte adherence (51Cr adhesion assay); format: cell-based
Method: (a) Monocyte purification. Monocytes were purified from the peripheral blood of normal donors, obtained from the Adelaide Red Cross Transfusion Service, as previously described (Elliott et. al., 1990, J. Immunol., 145, 167-171). In brief, mononuclear cells were prepared by centrifugation of whole blood on lymphoprep cushions (Nyegaard, Oslo, Norway) and washed twice in HBSS, 0.02% EDTA, 0.1% heat inactivated FCS (Flow Laboratories, North Ryde, Australia) and monocytes were purified in a Beckman J-6M/E elutriator using the Sanderson chamber, a flow rate of 12 ml/min and a constant rotor speed of 2050 rpm. Cells remaining in the chamber after 30 min were collected, washed twice in HBSS, and used immediately. Using these methods, monocyte purity as assessed by morphology and nonspecific-esterase staining was always >90% and usually >95%. The major contaminating cell types were lymphocytes and granulocytes (principally basophils).
(b) Adhesion assay. Adhesion was measured by an isotopic method essentially as described (Elliott et. al., supra). In brief, purified monocytes (0.5 to 1×10^8) were resuspended in 1 ml RPMI 1640 with 0.1% FCS and antibiotics and incubated for 30 min at 37° C. with 500 μCi^51 Cr in the form of sodium chromate (Amersham International., Buckinghamshire, England). Cells were washed thrice in RPMI 1640 and resuspended in culture medium consisting of RPMI 1640, 10% FCS, antibiotics, and 0.2% sodium bicarbonate. For measurement of adhesion, 1 to 2.5×10^5 monocytes were aliquotted per well in 96-well microtitre plates (Nunc, Karnstrup, Denmark) together with stimuli or control medium to a total volume of […], and incubated for the indicated periods. […] At harvest, samples of supernatant were taken to assess spontaneous ^51 Cr release (usually <10% of cell-associated radioactivity), wells were washed three times with RPMI 1640 at 37° C., and residual adherent cells lysed in 10 mM Tris-hydrochloride, and 1% Nonident p40 detergent (Sigma). Lysates were transferred to tubes and counted in a Packard auto-gamma 5650. Percent adherence was calculated according to the formula: [formula]

IL-3R α chain = molecular target: T1, IL-3R α chain (Homo sapiens, UniProt P26951); assay: Competition for 125I-IL-3 binding to cloned IL-3R α chain expressed in COS cell transfectants; details: for competition for 125I-IL-3 binding to cells expressing only the α chain: FIG. 6
T1 construct: amplify the complete coding region of the IL-3R alpha chain; expressed in transfected cells; host or cells: COS cells (pCDM8 vector, electroporation)
T1 sequence (P26951 19-378): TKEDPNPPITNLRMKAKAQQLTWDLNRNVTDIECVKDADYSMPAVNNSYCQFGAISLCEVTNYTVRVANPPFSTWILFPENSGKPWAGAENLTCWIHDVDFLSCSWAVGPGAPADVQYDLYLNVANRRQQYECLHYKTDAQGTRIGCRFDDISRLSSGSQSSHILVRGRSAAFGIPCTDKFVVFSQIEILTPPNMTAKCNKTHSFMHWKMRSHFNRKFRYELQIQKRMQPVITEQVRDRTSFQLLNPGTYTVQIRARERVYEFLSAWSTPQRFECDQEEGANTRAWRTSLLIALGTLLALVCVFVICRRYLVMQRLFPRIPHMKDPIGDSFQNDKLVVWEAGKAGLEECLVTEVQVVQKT
Text: PolyA+ RNA was isolated from the human cord blood cell line KMT2. Oligo dT primed double stranded cDNA was synthesised and used as template for PCR amplification. The PCR primers were designed to amplify the complete coding region of the IL-3R alpha chain and also to amplify the coding region of the […]. The PCR products were cloned into the vector pGEM-2 for sequence verification, and then into the eukaryotic expression vector, pCDM8. The […]-containing plasmid was transfected into COS cells by electroporation, either on its own or in conjunction with the […], and after two days the cells were used for binding studies.

[1] = test system: chronic myeloid leukaemic (CML) cells; assay: Proliferation of chronic myeloid leukaemic (CML) cells, [3H] thymidine incorporation; format: cell-based, human
Method: (b ) Proliferation of chronic myeloid leukaemic (CML) cells: Primarily CML cells from one patient were selected for their ability to incorporate [^3 H] thymidine in response to IL-3 as described (Lopez el. al., supra ). Briefly, CML cells were placed at 2×10^5 cells/mL fresh medium containing different concentrations of IL-3. Cells were incubated for 24 hours in a flat bottom 96-well NUNCLON plates (2×10^4 cells/well) before being pulsed with [^3 H] thymidine (0.5 μCi/well) for four more hours at 37° C. The cells were then harvested onto glass filters with a Titertek automated cell harvester and counted into a Beckman liquid scintillation counter. Data are expressed in cpm, and each point is the mean of six replicates.

[2] = test system: bone marrow progenitor cells; assay: Colony assay: clonal proliferation and differentiation of bone marrow progenitor cells in semi-solid agar; format: cell-based
Method: (a) Colony assay: this assay measured the clonal proliferation and differentiation of bone marrow progenitor cells in semi-solid agar and was carried out as described (Lopez et. al., 1985, Blood 72, 1797-1804). Briefly, low density, macrophage-depleted bone marrow cells were cultured at a concentration of 0.5 to 1×10^5 /mL in Iscove's modified Dulbecco's medium (IMDM, GIBCI, Grant Island, N.Y.), containing 0.33% agar (Difco, Detroit), 25% FCS (Commonwealth Serum Laboratories, Parkville, Victoria, Australia), and 20 μmol/LK2-mercaptoethanol. Different dilutions of IL-3- containing COS cell supernatants were added to each plate. Plates were prepared in triplicate and scored after incubation at 37° C. in 5% CO2 in a humid atmosphere for 14 days. Clones containing 40 cells were scored as colonies.

[3] = concentration of IL-3 mutant giving 50% of biological activity compared to that of wild type IL-3

B1: M37: human IL-3 mutant, Asp 101 replaced by Ala and Lys 116 by Val (protein, UniProt P08700 20-152, looked up, variant D101A K116V)
Interleukin-3: APMTQTTPLKTSWVNCSNMIDEIITHLKQPPLPLLDFNNLNGEDQDILMENNLRRPNLEAFNRAVKSLQNASAIESILKNLLPCLPLATAAPTRHPIHIKAGDWNEFRRKLTFYLVTLENAQAQQTTLSLAIF
stimulation of monocyte adherence (monocytes; FIG. 3): more potent than the wild type IL-3 | Relative biological activity, MONOCYTE (monocytes; [3]): 2100 | fold higher affinity than wild type IL-3 (IL-3R α chain; COS cells transfected with IL-3R α chain cDNA, E. coli produced protein): 10 fold | competition for 125I-IL-3 binding to cells expressing only the α chain (IL-3R α chain): competed for binding more efficiently | competition for 125I-IL-3 binding to cells expressing only the α chain (IL-3R α chain; listed as IL-3 (Ala^101, Val^116)): more potent at competing for binding than wild-type IL-3 | stimulation of CML cell proliferation ([1]; FIG. 2, FIG. 8): more potent than the wild type IL-3 | Relative biological activity, PROLIFERATION CML [1, 3]: 1694 | increase in biological activity versus wild type ([1]; summary statement over the functional assays of the Table (colonies, CML, monocyte)): 15-20 fold | number of day 14 colonies [2]: increase in the number of day 14 colonies | Relative biological activity, PROLIFERATION COLONIES ([2]; concentration of IL-3 mutant giving 50% of biological activity compared to that of wild type IL-3, mean ± SD): 1700
